Measurements published in the DeepSol protein solubility set.

Assay: soluble on expression in E. coli; label from the status in PepcDB or PDB records

Row | Sequence | soluble on expression in E. coli
1 | AISGAKKYFYMQTPYFLPTEQILGAMQTAALAGVDIRLMLPEHADNRVTHLGSCSYLADVLRAGVKVYFYKKGFLHSKLMVSDDMLSTVGSTNLDFRSFEHNFEVNAFMYDMETALQMREIFLQDQRESTQIFLKSWEKRSSRQKAMESVVRLLAPLL | not soluble
2 | MKNIAAQMVNFDREQMRRIANIDNQDMTISVWVFPDTDISDVSRELIAAIKQGYLTVKAAGVWAGGIETPSVETPSEGSKFFGFDMDNEFISGFDVGAWGVLL | soluble
3 | MGHHHHHHHHHHSSGHIEGRHMYTVMLDLKGRSVLVVGGGTIATRRIKGFLQEGAAITVVAPTVSAEINEWEAKGQLRVKRKKVGEEDLLNVFFIVVATNDQAVNKFVKQHIKNDQLVNMASSFSDGNIQIPAQFSRGRLSLAISTDGASPLLTKRIKEDLSSNYDESYTQYTQFLYECRVLIHRLNVSKSRKHELLTEIIDDQYRLSLVKQREFLQQIEKYK | soluble
4 | MDFLARATAIVGNTMVLMRRFGSPGTQAIGQSPAIPEAQKQGIMTLKMPAAKGWAPGHLPTPAPGLKVNAFARDLEHPRWIEVLPSGDVLVAEARQLPTPPKTLLDRAAQATMRRIRALGDSPNRITLLRDPDGRGEAQERETFLENQSQPFGMALVGDTFYVGNTDGIMAFPYRPGATRLEGPGRRLTTFKPGGHWTRSLIVSPDGRRIYAGVGSLSNIGDDGMEAEEGRAAIWELDLASGQARIYASGLRNPVGLAWEPTTRVLWTVVNERDGLGDETPPDYLTSVEEDGFYGWPYCYWNRIVDDRVPQDPAMVARAITPDYALGGHTASLGLCWVPAGTLPGFGDGMAIGQHGSWNRSKLSGYRLIFVPFANGRPSGPPRDILTGFLSDDEKLAYGRPVGVAVGPDRRSLLLADDVGDVIWRVTGALEHHHHHH | not soluble
5 | LDFATLPPEINSARMYSGAGSAPMLAAASAWHGLSAELRASALSYSSVLSTLTGEEWHGPASASMTAAAAPYVAWMSVTAVRAEQAGAQAEAAAAAYEAAFAATVPPPVIEANRAQLMALIATNVLGQNAPAIAATEAQYAEMWSQDAMAMYGYAGASAAATQLTPFTEPVQTTNASGLAAQSAAIAHATGASAGAQQTTLSQLIAAIPSVLQGLSSSTAATFASGPSGLLGIVGSGSSWLDKLWALLDPNSNFWNTIASSGLFLPSNTIAPFLGLLGGVAAADAAGDVLGEATSGGLGGALVAPLGSAGGLGGTVAAGLGNAATVGTLSVPPSWTAAAPLASPLGSALGGTPMVAPPPAVAAGMPGMPFGTMGGQGFGRAVPQYGFRPNFVARPPAAG | not soluble
6 | MGSDKIHHHHHHVSDLLSQDEIDALLHGVDDVEEEEVSDALDARAYDFSSQDRIVRGRMPTLEIVNERFARHLRISMFNMMRRAAEVSINGVQMLKFGEYVHTLFVPTSLNMVRFSPLKGTALITMEARLVFILVDNFFGGDGRFHAKIEGREFTPTERRIVQLLLKIIFEDYKEAWAPVMDVEFDYLDSEVNPAMANIVSPTEVVVVSSFHIEVDGGGGDFHITMPYSMIEPIRELLDAGVQSDTQDTDMRWSQALKDEIMDVEVGLDATIVEKEISLKDVMGFKAGDIIPVEMPEYIVLRVEDLPTYRCKLGRSRENLALNIREKIPRPETVKTELQLVTKKSKSRDLNNI | not soluble
7 | MIGITGVTGKLGSKVAQLISEQGISARHLARNPQRAALYDNAELVQVAFENSLEAVEALKGIDVLLMVSASESPNRLQQHFAFLDAAHEAGVKHIVYTSFYNAATEATFTLARDHAKTEKYIKERGFTYTFLRDNFYLDFFLDLCLNNGEIRGPAGNGKVSAVARQDVSEVATTILAKPDKWKNQLLNMTGPADLSMADIVHFVSEQKGEIIPYIDESIEEAYASRKAWPAQDWEYDAWVSTYTAIKEGKQAGVSSDIERVLGRPATSLEQLVKTIK | not soluble
8 | MAEIKHYQFNVVMTCSGCSGAVNKVLTKLEPDVSKIDISLEKQLVDVYTTLPYDFILEKIKKTGKEVRSGKQLAREVILAVHGMTCSACTNTINTQLRALKGVTKCDISLVTNECQVTYDNEVTADSIKEIIEDCGFDCEILRDS | soluble
9 | MAIPAFHPGELNVYSAPGDVADVSRALRLTGRRVMLVPTMGALHEGHLALVRAAKRVPGSVVVVSIFVNPMQFGAGGDLDAYPRTPDDDLAQLRAEGVEIAFTPTTAAMYPDGLRTTVQPGPLAAELEGGPRPTHFAGVLTVVLKLLQIVRPDRVFFGEKDYQQLVLIRQLVADFNLDVAVVGVPTVREADGLAMSSRNRYLDPAQRAAAVALSAALTAAAHAATAGAQAALDAARAVLDAAPGVAVDYLELRDIGLGPMPLNGSGRLLVAARLGTTRLLDNIAIEIGTFAGTDRPDGYRA | soluble
10 | MSLNRNNPLEVLGHVSWLWASSPLHRNWPVSLFAINVLPAIRANQYALLTRDNYPVAYCSWANLSLENEIKYLNDVTSLVAEDWTSGDRKWFIVWIAPFGDNGALYKYMRKKFPDELFRAIRVDPKTHVGKVSEFHGGKIDKQLANKIFKQYHHELITEVKNKSDFNFSLTGEGHHHHHH | soluble
11 | MSLENDFPLKGKTVLVTRNKAQAASFQQKVEALGGKAVLTSLITFRRALPNDVAEQVREDLAAPGWLVFTSVNGADFFFSYLKENQLILPAHKKIAAVGEKTARRLKMHNVSVDVMPQEYIAEQLADALKQHAEPGETITVMKGNLSRDVIKQELVPLGFEVKEWVLYETIPDEEGIEALKDAAGQYSFDYVTFTSSSTVHTFMHVLGEELKKWKANGTACISIGPLTNDALLTYGITSHTPDTFTIDGMLELMCSMSREEERIEGHHHHHH | soluble
12 | MGSDKIHHHHHHMKLSLVISTSDAAFDALAFKGDLRKGMELAKRVGYQAVEIAVRDPSIVDWNEVKILSEELNLPICAIGTGQAYLADGLSLTHPNDEIRKKAIERVVKHTEVAGMFGALVIIGLVRGRREGRSYEETEELFIESMKRLLELTEHAKFVIEPLNRYETDFINTIDDALRILRKINSNRVGILADTFHMNIEEVNIPESLKRAGEKLYHFHVADSNRWAPGCGHFDFRSVFNTLKEIGYNRYVSVECLPLPGGMEEAAEIAFKTLKELIIKLT | not soluble
13 | MTNLFVRSGISFVDRSEVLTHIGNEMLAKGVVHDTWPQALIAREAEFPTGIMLEQHAIAIPHCEAIHAKSSAIYLLRPTNKVHFQQADDDNDVAVSLVIALIVENPQQQLKLLRCLFGKLQQPDIVETLITLPETQLKEYFTKYVLDSDE | soluble
14 | AIAEPGSPAGAGAEAPAFYSERKLSRKQLKKLAKAEREYEEERRKELEAAQAVDTAQKRELARIESILRTHALRMEYVEPDGHCLFRALVRQLRPLIQSGLFDTYFPAADTETRSALLTWSTIPDEMEAVWLLRKTLASFIRRRGTEFFPFIVGELDPQGTLLDASDDPAERVAQYCARLEDGTLWGGQPELQAVALALRCRVFVFADPEILPNGMLVMGADDASTDTGAESVTALRVSFHKQFFSLGEHYHAVVPADDSRGDARDPRISAS | soluble
15 | MGSDKIHHHHHHMEGKALRQGSIAGKGAPRNTASLIQYAQDHFDAAHFQGLMAIYGRPLADRAVALTHDRGRRVVDFVRCSYLGLDNHPQIVAGAVEAMKEYGTLHWSCARTRLNFSILGDLEAALSELFDARVITYTTVLAANMGALPLIASGHLTGGVKPLMVFDRLAHATLAFHKGTIAAETRVETIAHNDLEALEMLCRTNGSVAFVCDGVYSMGGSADLARLRRLQERYGLFLYIDDAHGVSIFGKHGEGFARSQMSGPLGERTIVAASLGKGFGASGGLIMLGTARQEELFRRFAVAHAFSASLNVAAIGAARASQQLHLTEELTELQQRLRSRTALFDSLVPTEQQGSPLPIRTVEIGDEMTAIGAARALLDRGFYTSAIFFPTVARGRAGLRLCPTAGHSEDDIRGLGIAIQDVLKEISGR | not soluble
16 | KGKLPPVVHGTTPFVGHIIQFGKDPLGFMLKAKKKYGGIFTMNICGNRITVVGDVHQHSKFFTPRNEILSPREVYSFMVPVFGEGVAYAAPYPRMREQLNFLAEELTVAKFQNFAPSIQHEVRKFMKANWNKDEGEINILDDCSAMIINTACQCLFGEDLRKRLDARQFAQLLAKMESCLIPAAVFLPWILKLPLPQSYRCRDARAELQDILSEIIIAREKEEAQKDTNTSDLLAGLLGAVYRDGTRMSQHEVCGMIVAAMFAGQHTSTITTTWSLLHLMDPRNKRHLAKLHQEIDEFPAQLNYDNVMEEMPFAEQCARESIRRDPPLVMLMRKVLKPVQVGKYVVPEGDIIACSPLLSHQDEEAFPNPREWNPERNMKLVDGAFCGFGAGVHKCIGEKFGLLQVKTVLATVLRDYDFELLGPLPEPNYHTMVVGPTASQCRVKYIKKKKAAA | soluble
17 | VRRVPLFENMDERLLDAICERLKPCLFTEKSYLVREGDPVNEMLFIIRGRLESVTTDGGRSGFYNRSLLKEGDFCGDELLTWALDPKSGSNLPSSTRTVKALTEVEAFALIADELKFVASQFRR | soluble
18 | MGSDKIHHHHHHMKFNTTIKRLQEAVNKVILAVPAKSLDARFDNINLTLENGMLTMFATDGELSITTNCDVASTDKGNIAIRARTLQDFLRSMYETDVTFDIERQSIGELGTIHIATDKGRYRIPCTFTTKPESQKRNFDLSIELQQNELQDMIHKTLFACSVDGMRPAMMGVLFEFDEEYITAVSTDGHRLVRCRKKPGVTVAEKQKIVVPARVLSIIQRMLTNEEVKMTIDSERRNVKFKTATMELESALIVEPYPNYEAVIPVENEKQLVTDRSQLHDSVKRVGRFSSIGDLKISAQDSQIKVMAENASEGESAQEELPCTFTGEEITIGFNAKFVEAALSHIETEQVSIEMSSPTTAVLFKPKYEERQDDLIILVMPVRINN | not soluble
19 | MRKGINMTAELLVNVTPSETRVAYIDGGILQEIHIEREARRGIVGNIYKGRVSRVLPGMQAAFVDIGLDKAAFLHASDIMPHTECVAGEEQKQFTVRDISELVRQGQDLMVQVVKDPLGTKGARLTTDITLPSRYLVFMPGASHVGVSQRIESESERERLKKVVAEYCDEQGGFIIRTAAEGVGEAELASDAAYLKRVWTKVMERKKRPQTRYQLYGELALAQRVLRDFADAELDRIRVDSRLTYEALLEFTSEYIPEMTSKLEHYTGRQPIFDLFDVENEIQRALERKVELKSGGYLIIDQTEAMTTVDINTGAFVGHRNLDDTIFNTNIEATQAIARQLRLRNLGGIIIIDFIDMNNEDHRRRVLHSLEQALSKDRVKTSVNGFSALGLVEMTRKRTRESIEHVLCNECPTCHGRGTVKTVETVCYEIMREIVRVHHAYDSDRFLVYASPAVAEALKGEESHSLAEVEIFVGKQVKVQIEPLYNQEQFDVVMM | not soluble
20 | MGSDKIHHHHHHMKKLDLDVLAMVVAVAESGSFAQGAQAVHRSPSAVSMQIKALEDALGKPLFIRDTRNVTATDDGRMLAEYGRRMLAMRDEAWASVVRPEIRGRVTIGVPDDYISSLLPQVLGKFAAMHPRVEVRVIGQPSSALVPMLKDNTVDLACLTRIKGVTGELIRMEPLVWVGSPKRNVWEERPLPVAFFTHGGSMARDHAVKALNRRKIPYRMSYESPSHLGLLSMVEAGLAVAPLARCCIPDHLVQLSESHGLPSLGELEVVLARSAKSARPPCDYLAEQILDEWRT | not soluble
21 | MQLYVVLCFLVLLGLSAGQMTFTDQWTKKRATLHKQLPVVTPEEPICPSDRVQAVFEQLDQLQKAQQRLTEYLASCAYPVEVPQKAEKM | not soluble
22 | KEYFSVWMEDIIYFENSGRNVKIMTIDGTDLFVGNIKDIAKEVLPYGFIQISQSIIVNYNFVSKYSREEIILINKEKIAIPKNKRNGVKEQFL | not soluble
